Assay results: patent US20110064668A1

Columns and labels:
[1] = biological target: α3β4 subtype of rat neuronal nAChR (rat), P04757; assay: cell-based or functional assay
[2] = biological target: Kv1.6 channel; assay: cell-based or functional assay

Chain of α3β4 subtype of rat neuronal nAChR (rat), P04757 (P04757 26-499, chain 1 of 2): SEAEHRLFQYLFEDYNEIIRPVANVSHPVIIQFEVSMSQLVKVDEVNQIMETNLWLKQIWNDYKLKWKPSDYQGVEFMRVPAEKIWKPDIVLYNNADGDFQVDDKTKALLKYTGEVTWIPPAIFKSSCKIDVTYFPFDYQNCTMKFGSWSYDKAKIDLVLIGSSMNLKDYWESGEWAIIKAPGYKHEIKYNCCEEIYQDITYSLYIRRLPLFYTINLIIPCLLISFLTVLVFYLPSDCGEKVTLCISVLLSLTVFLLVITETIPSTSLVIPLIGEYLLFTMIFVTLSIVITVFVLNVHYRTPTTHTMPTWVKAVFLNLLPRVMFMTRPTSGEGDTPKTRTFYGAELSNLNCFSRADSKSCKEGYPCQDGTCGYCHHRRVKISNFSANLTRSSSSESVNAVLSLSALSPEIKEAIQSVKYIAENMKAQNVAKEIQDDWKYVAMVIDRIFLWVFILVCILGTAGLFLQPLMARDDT
Chain of α3β4 subtype of rat neuronal nAChR (rat), P04757 (P12392 21-495, chain 2 of 2, further chain): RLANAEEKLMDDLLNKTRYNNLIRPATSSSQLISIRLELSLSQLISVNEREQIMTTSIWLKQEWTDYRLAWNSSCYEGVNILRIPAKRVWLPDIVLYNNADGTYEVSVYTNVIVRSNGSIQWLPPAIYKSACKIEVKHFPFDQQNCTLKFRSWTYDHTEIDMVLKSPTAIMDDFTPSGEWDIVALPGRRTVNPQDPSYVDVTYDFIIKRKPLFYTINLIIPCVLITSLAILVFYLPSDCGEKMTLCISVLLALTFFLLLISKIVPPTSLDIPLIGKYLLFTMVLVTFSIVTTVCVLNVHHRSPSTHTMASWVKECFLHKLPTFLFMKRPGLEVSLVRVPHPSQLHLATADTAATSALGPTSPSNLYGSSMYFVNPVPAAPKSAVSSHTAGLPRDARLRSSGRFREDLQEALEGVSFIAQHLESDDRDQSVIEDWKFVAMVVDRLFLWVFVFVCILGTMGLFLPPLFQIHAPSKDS

FPRPRICNLACRAGIGHKYPFCHCR (modifications not checked) [conotoxin pl14a]
IC50 in α3β4 (nM), block of ACh-elicited current in oocytes [1]: 8700 nM
IC50, µM (vitelline membrane retained) [2]: 3.12 µM
IC50 for the block of Kv1.6 currents (vitelline membrane removed) [2]: 1.59 µM
